This passage reports Kd results from paper doi:10.1101/438903.

As usually defined, the Kd is the constant that tells how readily two partners part at equilibrium.

This assay concerns the target DY-547P1 labelled NDC80-C Bonsai (ΔHec1 1-80). Put plainly: MST.

B1: MPS1^WT (1xNTE, residues 1-808), recombinant from insect cells (enzyme)
chain: MESEDLSGRELTIDSIMNKVRDIKNKFKNEDLTDELSLNKISADTTDNSGTVNQIMMMANNPEDWLSLLLKLEKNSVPLSDALLNKLIGRYSQAIEALPPDKYGQNESFARIQVRFAELKAIQEPDDARDYFQMARANCKKFAFVHISFAQFELSQGNVKKSKQLLQKAVERGAVPLEMLEIALRNLNLQKKQLLSEEEKKNLSASTVLTAQESFSGSLGHLQNRNNSCDSRGQTTKARFLYGENMPPQDAEIGYRNSLRQTNKTKQSCPFGRVPVNLLNSPDCDVKTDDSVVPCFMKRQTSRSECRDLVVPGSKPSGNDSCELRNLKSVQNSHFKEPLVSDEKSSELIITDSITLKNKTESSLLAKLEETKEYQEPEVPESNQKQWQSKRKSECINQNPAASSNHWQIPELARKVNTEQKHTTFEQPVFSVSKQSPPISTSKWFDPKSICKTPSSNTLDDYMSCFRTPVVKNDFPPACQLSTPYGQPACFQQQQHQILATPLQNLQVLASSSANECISVKGRIYSILKQIGSGGSSKVFQVLNEKKQIYAIKYVNLEEADNQTLDSYRNEIAYLNKLQQHSDKIIRLYDYEITDQYIYMVMECGNIDLNSWLKKKKSIDPWERKSYWKNMLEAVHTIHQHGIVHSDLKPANFLIVDGMLKLIDFGIANQMQPDTTSVVKDSQVGTVNYMPPEAIKDMSSSRENGKSKSKISPKSDVWSLGCILYYMTYGKTPFQQIINQISKLHAIIDPNHEIEFPDIPEKDLQDVLKCCLKRDPKQRISIPELLAHPYVQIQTHPVNQMAKGTTEE
B1 gave a Kd of 300 nM.
